This is an account of results in article PMC7147772, “Biochemical characterization of the Nocardia lactamdurans ACV synthetase” (PLoS ONE, 2020).

What all share (experiment): ACV tripeptide formation, HPLC/MS
Common to all, as to format: biochemical, Amycolatopsis lactamdurans

In data set [1] the test system is CC(C)[C@H](N)C(=O)O. The conditions noted are these: L-α-Aaa and L-Cys co-substrates, 5 mM ATP, 5 mM MgCl2, 2 mM DTT, CoA and Sfp, pH 7.0, 30 °C, module 3.
Data set [2] has as its system N[C@@H](CCCC(=O)O)C(=O)O. To be noted: L-Cys and L-Val co-substrates, 5 mM ATP, 5 mM MgCl2, 2 mM DTT, CoA and Sfp, pH 7.0, 30 °C, module 1.
Data set [3] deals with N[C@@H](CS)C(=O)O. The conditions noted are these: L-α-Aaa and L-Val co-substrates, 5 mM ATP, 5 mM MgCl2, 2 mM DTT, CoA and Sfp, pH 7.0, 30 °C, module 2.

For orientation: Km means the substrate concentration at which the rate is half of its maximum.

Turning to “Nl ACVS (L-δ-(α-aminoadipoyl)-L-cysteinyl-D-valine synthetase) (Amycolatopsis lactamdurans)”, the results for the Km in data set [1], in data set [2] and in data set [3] were 150 ± 4 µM, 640 ± 16 µM and 40 ± 1 µM, respectively.
